# Reference: publication PMC3575409, “Identification of a Novel Protein-Protein Interaction Motif Mediating Interaction of GPCR-Associated Sorting Proteins with G Protein-Coupled Receptors” (PLoS ONE, 2013)
# Values joined by “and” are separate entries in the source; they are usually repeats but may differ in a detail not shown here. Identical values can stand only once.
# B1: central domain of GASP-1: central portion of GASP-1 (AA 380 to 1073) that contains 19 GASP motif (protein)
# chain: MTKEEAKTKARARAKQEARSEEEALIGTWFWATDESSMADEASIESSLQVEDESIIGSWFWTEEEASMGTGASSKSRPRTDGERIGDSLFGAREKTSMKTGAEATSESILAADDEQVIIGSWFWAGEEVNQEAEEETIFGSWFWVIDAASVESGVGVSCESRTRSEEEEVIGPWFWSGEQVDIEAGIGEEARPGAEEETIFGSWFWAENQTYMDCRAETSCDTMQGAEEEEPIIGSWFWTRVEACVEGDVNSKSSLEDKEEAMIPCFGAKEEVSMKHGTGVRCRFMAGAEETNNKSCFWAEKEPCMYPAGGGSWKSRPEEEEDIVNSWFWSRKYTKPEAIIGSWLWATEESNIDGTGEKAKLLTEEETIINSWFWKEDEAISEATDREESRPEAEEGDIIGSWFWAGEEDRLEPAAETREEDRLAAEKEGIVGSWFGAREETIRREAGSCSKSSPKAEEEEVIIGSWFWEEEASPEAVAGVGFESKPGTEEEEITVGSWFWPEEEASIQAGSQAVEEMESETEEETIFGSWFWDGKEVSEEAGPCCVSKPEDDEEMIVESWFWSRDKAIKETGTVATCESKPENEEGAIVGSWFEAEDEVDNRTDNGSNCGSRTLADEDEAIVGSWFWAGDEAHFESNPSPVFRAICRSTCSVEQEPDPSRRPQSWEEVTVQFKPGPWGRVGFPSISPFRFPKE
# modifications: left off: GST, N-terminal, kept
# notes: central portion of GASP-1 (AA 380 to 1073) that contains 19 GASP motif
# Key:
# [1] = system: GFP-tagged ADRB2 in HEK293 cells; assay: Co-immunoprecipitation, ADRB2; format: cell-based; conditions: 48 h expression, anti-GFP immunoprecipitation
# Experimental: HEK293 cells stably expressing N-terminal GFP-tagged ADRB1, ADRB2, CALCR and M1 or MyrPalm-mYFP were transfected with pcDNA3.1 containing the sequence for a central domain of GASP-1 (AA 380 to 1073) using JetPEI reagent (polyplus transfection) according to the instructions from the manufacturer. After 48 h of expression, cells were washed twice with PBS and lysed in a buffer containing 10 mM Tris-HCl, pH 7.4, 150 mM NaCl, 25 mM KCl, 0.3% Triton X-100 and cOmplete protease inhibitors (Roche) for 1 h at 4°C under agitation. 500 µg of cleared lysates were incubated with 1 µg of a mouse monoclonal anti-GFP antibody (Invitrogen) overnight at 4°C, followed by an incubation with 40 µl of protein A-Sepharose beads for an additional 2 h at 4°C. Beads were then washed five times in lysis buffer and precipitates were resolved on an 8% gel by SDS–PAGE and electrotransferred to immobilon-P membranes (Millipore) in 50 mM Tris-boric acid for 1 h at 300 mA. Membranes were blocked with 5% non-fat powder milk in TBS-Tween (50 mM Tris-HCl pH 8, 150 mM NaCl, 0.4% Tween-20) for 1 h at room temperature. […] For immunodetection of GASP or GFP-tagged receptors directly from cell lysates, 10 µg of proteins were loaded on SDS gels and analyzed following the procedure described above. Finally, membranes were washed in TBS-Tween and detected by chemiluminescence (ECL prime, GE Healthcare). […]
# [2] = system: full-length CNR2 (cannabinoid receptor type 2); assay: SPR saturation binding, CNR2; parameters: species or system human
# Experimental: The human ADRB2 and CNR2 receptors were produced using the P. pastoris expression system as previously described, [16]. After methanol-induced receptor expression, cells were washed with PBS pH 7.0 and resuspended in ice-cold buffer A (50 mM Tris-HCl pH 7.4, 500 mM NaCl, 10% glycerol, 5 mM EDTA, 1 mM PMSF, 2 mM DDT). Cells were then lysed with two cycles of 20 s shaking and 20 s cooling on ice using 0.5 mm glass beads in a FastPrep 24 device. Unbroken cells and cell debris were removed by centrifugation (3000 g, 5 min, 4°C) and the membrane fraction from the supernatant was pelleted by ultracentrifugation (100,000 g, 45 min, 4°C). […] Finally membranes were resuspended in buffer B and quantified with the bicinchoninic acid (BCA) method (Pierce).
# Approximately 150 mg membrane proteins were extracted by 5 min incubation at room temperature in buffer C (50 mM Tris-HCl pH 7.4, 500 mM NaCl, 10% glycerol, 1 mM PMSF, 2 mM DTT, 50 mM imidazole, 1% (w/v) DDM, 0.1% (w/v) CHS). […] Imidazole was removed from the eluted fraction using a HiTrap 5 ml desalting column (GE Healthcare), purified proteins were quantified using the BCA assay (Pierce) and receptor integrity was analyzed by SDS-PAGE. […]
molecule,measurement,setting,value
B1,co-immunoprecipitation with ADRB2,[1],co-immunoprecipitated
same,dissociation rate constant k d,"[2]; 25°C, 50 mM Tris-HCl pH 7.4, 150 mM NaCl, 0.1% DDM, 0.01% CHS, captured GST-tagged central domain (AA 380–1073)",6.5±0.1×10^−4 s^−1 and < 10^−3 s^−1
same,kinetics of the interaction,[2]; full-length CNR2,very stable and had a slow association rate
